Measured values as given in article PMC11473951.
pKd: −log10 of the molar value.

Key:
Assay in all cases: SPR
[1] = molecular target: monoclonal antibody 9AD4 (mouse)
[2] = molecular target: human monoclonal antibody R5.016 (human)
[3] = molecular target: human monoclonal antibody R5.034 (human)
Sequence of human monoclonal antibody R5.034 (human) (heavy, as listed by the source, chain 1 of 2): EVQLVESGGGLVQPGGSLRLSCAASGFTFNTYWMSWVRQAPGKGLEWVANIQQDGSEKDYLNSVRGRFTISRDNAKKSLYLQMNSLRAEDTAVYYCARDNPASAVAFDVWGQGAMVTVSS
Sequence of human monoclonal antibody R5.034 (human) (light, as listed by the source, chain 2 of 2): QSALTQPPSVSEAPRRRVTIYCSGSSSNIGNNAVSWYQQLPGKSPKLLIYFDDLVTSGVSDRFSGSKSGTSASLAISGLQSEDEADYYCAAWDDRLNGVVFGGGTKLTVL

Sequence of monoclonal antibody 9AD4 (mouse) (light, as listed by the source, chain 2 of 2, other chains not shown): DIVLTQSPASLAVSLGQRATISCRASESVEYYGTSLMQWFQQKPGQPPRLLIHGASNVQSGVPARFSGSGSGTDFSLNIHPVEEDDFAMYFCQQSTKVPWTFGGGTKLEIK
Sequence of human monoclonal antibody R5.016 (human) (heavy, as listed by the source, chain 1 of 2): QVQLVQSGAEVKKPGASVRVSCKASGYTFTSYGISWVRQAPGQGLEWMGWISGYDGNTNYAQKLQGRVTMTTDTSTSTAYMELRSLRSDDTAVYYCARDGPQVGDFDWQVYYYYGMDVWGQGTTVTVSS
Sequence of human monoclonal antibody R5.016 (human) (light, as listed by the source, chain 2 of 2): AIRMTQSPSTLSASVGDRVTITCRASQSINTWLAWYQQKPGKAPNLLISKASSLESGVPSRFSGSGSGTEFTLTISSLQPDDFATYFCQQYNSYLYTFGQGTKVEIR

With “PfRH5 (from UniProt Q8IFM5 25-526) (natural protein)” the pKd [1] was 8.80, the pKd [2] was 8.62 and the pKd [3] was 10.03.
